The record followed here is publication PMC3340179.

The target in this data set is STAT3-GFP (STAT3-EGFP fusion, unphosphorylated) (UniProt P40763). Kind of data set: MST.

As a reminder, the Kd is the concentration at which binding is half-saturated.

Sequence of STAT3-GFP (STAT3-EGFP fusion, unphosphorylated) (P40763 whole entry, the tested form may be a part): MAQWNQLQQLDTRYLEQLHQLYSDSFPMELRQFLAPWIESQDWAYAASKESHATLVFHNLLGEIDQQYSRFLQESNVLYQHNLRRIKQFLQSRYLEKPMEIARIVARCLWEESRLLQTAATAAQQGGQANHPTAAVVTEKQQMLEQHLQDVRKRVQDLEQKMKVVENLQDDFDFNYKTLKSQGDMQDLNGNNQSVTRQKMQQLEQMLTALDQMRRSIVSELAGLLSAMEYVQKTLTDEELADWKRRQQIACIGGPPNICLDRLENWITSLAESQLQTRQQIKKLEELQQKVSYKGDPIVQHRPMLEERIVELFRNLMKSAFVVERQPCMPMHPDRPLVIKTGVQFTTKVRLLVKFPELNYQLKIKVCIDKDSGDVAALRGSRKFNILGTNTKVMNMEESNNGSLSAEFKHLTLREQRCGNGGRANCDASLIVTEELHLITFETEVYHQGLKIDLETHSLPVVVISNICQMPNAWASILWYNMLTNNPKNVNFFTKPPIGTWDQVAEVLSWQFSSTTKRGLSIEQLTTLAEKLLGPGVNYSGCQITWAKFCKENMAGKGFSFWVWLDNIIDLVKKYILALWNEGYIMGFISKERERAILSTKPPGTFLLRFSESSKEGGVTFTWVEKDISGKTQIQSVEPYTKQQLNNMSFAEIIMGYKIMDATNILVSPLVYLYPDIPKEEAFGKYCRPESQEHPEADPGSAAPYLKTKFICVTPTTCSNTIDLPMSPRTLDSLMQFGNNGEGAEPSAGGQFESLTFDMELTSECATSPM

Take “AAAACAAAACGAAACAAACAAACTA (double strand) [S+100]”: the Kd turned out to be 23.3 µM. In other words, the double-digit micromolar range.

On to “GTTTCCGGGAAAGCAGTAGGTTTCCGGGAAAG (double strand) [GAS]”, for which the Kd amounted to 37.9 µM.
